Values joined by “and” are separate entries in the source; they are usually repeats but may differ in a detail not shown here. Equal values may be shown once.
Legend:
NRK-49F cells = assay: Abnormal cytokinesis: cells having two or more nuclei after transient transfection; assay type: cell-based, rat; details: 72 hours after transfection
From the text: (§1) To confirm the generality of this observation, AIM-1 (WT) and AIM-1 (K-R) plasmids were transiently expressed in NRK-49F cells and human diploid fibroblast KD cells and the results were compared with those obtained in a control transfected with vector alone. These constructs were transfected into cell-s with a reporter construct […] to prepare β-galactosidase-expressing plasmids for use as a positive internal control for transfection (Table 1).
(§2) (2) Abnormal Cytokinesis in Cells Expressing AIM-1 (K-R) Plasmid FLAG-AIM-1 (WT), FLAG-AIM-1 (K-R) or a control plasmid pEF/hygI was cotransfected with a reporter construct RSV-β-galactosidase at a ratio of 10:1 into NRK-49F cells and human diploid fibroblast KD cells (a kind gift of late Dr. Takeo Kakunaga) by Lipofectin method. After 24 hours, 1×10^3 cells were seeded per 60 mm dish, and 72 hours after transfection, cells were fixed in 1.25% glutaraldehyde/PBS and stained by a method described in literature (Shu et al., J.C.S. 108:2955-62, 1995) to observe expression of β-galactosidase. MvlLu cells were also tested under the conditions described in (1) B above.
(§3) 1. The figures in the table mean the percentage of cells having two or more nuclei to β-galactosidase positive cells for NRK-49F cells and KD cells or the percentage of cells having two or more nuclei to the total number of cells for MvlLu cells. […]

[1] = tested on: human diploid fibroblast KD cells; assay: as above; assay type: cell-based; details: 72 hours after transfection
From the text: as §1, §2, §3

Mv1Lu cells [2] = assay: Abnormal cytokinesis: cells having two or more nuclei, tetracycline-inducible expression, Giemsa staining; assay type: cell-based, mink; details: for percentage of cells having two or more nuclei to the total number of cells: Mv1Lu, 72 hours
Procedure: (§4) MvlLu cells carrying vector alone, wild-type FLAG-AIM-1 (WT) or FLAG-AIM-1 (K-R) were grown in the presence or absence of doxycycline (tetracycline analog) for 24 hours and then subjected to western blot with anti-FLAG antibody (FIG. 4A). […] In addition, the size of these cells was much larger than normal cells (FIGS. 4Bf and 5D). In these abnormal cells, however, spindle. functions including chromosome disjunction and late anaphase spindle elongation as well as nuclear division appeared unaffected (data not shown). This was further confirmed by flow cytometry (FACS) (FIG. 4C). […] Namely, apocytes appeared because karyokinesis advances but cytokinesis is inhibited.
Then, asynchronous cells transfected with vector alone (a, d), FLAG-AIM-1 (WT) (b, e) or FLAG-AIM-1 (K-R) (c, f) were grown with (a-c) or without (d-f) DOX for 72 hours and stained with Giemsa's solution. Results are shown in FIG. 4B, wherein upper panels are called as a, b and c from left to right, and lower panels are called as d, e and f from left to right.
as §2
1. The figures in the table mean the percentage of cells having two or more nuclei to β-galactosidase positive cells for NRK-49F cells and KD cells or the percentage of cells having two or more nuclei to the total number of cells for MvlLu cells. For each cell line, 160 or more cells were tested.

Mv1Lu cells [3] = assay: FACS analysis of DNA content (propidium iodide); assay type: cell-based, mink; details: 72 hour-induction
Procedure: as §4
Cell samples were harvested and fixed with ethanol, stained with propidium iodide for FACS analysis.

Mv1Lu cells [4] = assay: Growth for 2 weeks with or without DOX, Giemsa staining; assay type: cell-based, mink; details: grown 2 weeks with or without doxycycline
Procedure: The nuclei of these AIM-1 (K-R)-expressing cells divided 3 to 4 times during 4 to 5 days, resulting in more than 10 nuclei per cell (FIG. 5D).
Mv1Lu cells transfected with FLAG-AIM-1 (WT) or FLAG-AIM-1 (K-R) were grown with or without DOX for 2 weeks and stained with Giemsa's solution.

B1: AIM-1 (K-R): kinase-inactive (dominant negative) FLAG-AIM-1 in which lysine at the 109-position was replaced by arginine, expressed from plasmid (protein, UniProt O55099 1-343, looked up, variant K109R)
Aurora kinase B: MAQKENVYPWPYGSKTSQSGLNTLPQRVLRKEPAVTPAQALMNRSNSQSTAVPGQKLTENKGATALQGSQSRQPFTIDNFEIGRPLGKGKFGNVYLAREKKSRFIVALRILFKSQIEKEGVEHQLRREIEIQAHLKHPNILQLYNYFYDQQRIYLILEYAPRGELYKELQKSGTFDEQRTATIMEELSDALMYCHKKKVIHRDIKPENLLLGLQGELKIADFGWSVHAPSLRRKTMCGTLDYLPPEMIEGRMHNEMVDLWCIGVLCYELMVGNPPFESPSHSETYRRIVKVDLKFPSSMPLGAKDLISKLLKHNPSQRLPLEQVSAHPWVRANSRRVLPPSAL
modifications: N-terminal FLAG tag
percentage of cells having two or more nuclei to β-galactosidase positive cells (NRK-49F cells): 62%
percentage of cells having two or more nuclei to β-galactosidase positive cells [1]: 38% and 38.4%
nuclei per cell (Mv1Lu cells [2]; Mv1Lu cells expressing construct, during 4 to 5 days): more than 10
percentage of cells having two or more nuclei to the total number of cells (Mv1Lu cells [2]; DOX(+) (not induced)): 7.7%
percentage of cells having two or more nuclei to the total number of cells (Mv1Lu cells [2]; DOX(−) (induced)): 68.4%
percentage of cells having two or more nuclei to the total number of cells (Mv1Lu cells [2]; DOX(−) (induced), listed as FLAG-AIM-1 (K-R)): about 68%
cell population with 4N or 8N DNA / cell cycle pattern (FACS) (Mv1Lu cells [3]): dramatically increased
effect on growth potency (mitotic inhibition) (Mv1Lu cells [4]): miotic inhibition was observed
